Source: patent US20200255522A1 (published 2020)

T1: VEGF (UniProt P15692-9 27-147)
T1 construct: also called VEGF121
T1 sequence (looked up): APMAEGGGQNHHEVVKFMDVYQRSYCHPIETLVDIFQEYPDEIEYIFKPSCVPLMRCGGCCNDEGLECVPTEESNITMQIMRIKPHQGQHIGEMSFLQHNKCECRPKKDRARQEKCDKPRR


Columns and labels:
VEGF [1] = target: T1, VEGF; experiment: bridging ELISA of exchange reaction mix: capture VEGF, detection biocytinamid-Cy5; signal needs both specificities; highest value = 100%, input 1.3 µM
VEGF [2] = target: T1, VEGF; experiment: bridging ELISA, capture VEGF, detection biocytinamid-Cy5 or digoxygenin-Cy5
VEGF [3] = target: T1, VEGF; experiment: bridging ELISA of exchange reaction mix: capture VEGF, detection digoxygenin-Cy5; signal needs both specificities; highest value = 100%, input 1.3 µM

Binder | relative signal intensity (VEGF [1]) | binding result (VEGF [2]) | relative signal intensity (VEGF [3])
bsAb from exchange reaction between anti-bio 2/3-IgG (MHCFcRP-knob-E357K) and anti-fluos 2/3-IgG (MHCFcRP-hole-K370E) (bispecific antibody, Exchange product as applied in the reaction mix; also called bio fluos) heavy 1: not shown light 1: DIQMTQSPSSLSASVGDRVTITCRASGNIHNYLSWYQQKPGKVPKLLIYSAKTLADGVPSRFSGSGSGTDFTLTISSLQPEDVATYYCQHFWSSIYTFGQGTKLEIKRTVAAPSVFIFPPSDEQLKSGTASVVCLLNNFYPREAKVQWKVDNALQSGNSQESVTEQDSKDSTYSLSSTLTLSKADYEKHKVYACEVTHQGLSSPVTKSFNRGEC heavy 2: not shown light 2: DIVMTQTPLSLSVTPGQPASISCKSSQSLVHSNGNTYLRWYLQKPGQSPKVLIYKVSNRVSGVPDRFSGSGSGTDFTLKISRVEAEDVGVYYCSQSTHVPWTFGQGTKLEIKRTVAAPSVFIFPPSDEQLKSGTASVVCLLNNFYPREAKVQWKVDNALQSGNSQESVTEQDSKDSTYSLSSTLTLSKADYEKHKVYACEVTHQGLSSPVTKSFNRGEC | 9% | no binding (tested: 1.3 µM input molecule concentration) | 7.2%
bsAb from exchange reaction between anti-dig 2/3-IgG (MHCFcRP-knob-E357K) and anti-PDGF 2/3-IgG (MHCFcRP-hole-K370E) (bispecific antibody, not shown: small tags and cut ends, Exchange product as applied in the reaction mix; also called dig PDGF) heavy 1: QVQLVESGGGLVKPGGSLRLSCAASGFTFSDYAMSWIRQAPGKGLEWVSSINIGATYIYYADSVKGRFTISRDNAKNSLYLQMNSLRAEDTAVYYCARPGSPYEYDKAYYSMAYWGQGTTVTVSSASTKGPSVFPLAPSSKSTSGGTAALGCLVKDYFPEPVTVSWNSGALTSGVHTFPAVLQSSGLYSLSSVVTVPSSSLGTQTYICNVNHKPSNTKVDKKVEPKSC light 1: not shown heavy 2: EVQLVESGGGLVQPGGSLRLSCAASGFTFSSYWMSWVRQAPEKGLEWVSTISDGGGLTYYADSVKGRFTISRDNAKNSLYLQMNSLRAEDTAVYYCAESGGYTDWLFGYWGQGTLVTVSSASTKGPSVFPLAPSSKSTSGGTAALGCLVKDYFPEPVTVSWNSGALTSGVHTFPAVLQSSGLYSLSSVVTVPSSSLGTQTYICNVNHKPSNTKVDKKVEPKSC light 2: not shown | 9.9% | no binding (tested: 1.3 µM input molecule concentration) | 7%
bsAb from exchange reaction between anti-PDGF 2/3-IgG (MHCFcRP-knob-E357K) and anti-bio 2/3-IgG (MHCFcRP-hole-K370E) (bispecific antibody, not shown: small tags and cut ends, Exchange product as applied in the reaction mix; also called PDGF bio) heavy 1: EVQLVESGGGLVQPGGSLRLSCAASGFTFSSYWMSWVRQAPEKGLEWVSTISDGGGLTYYADSVKGRFTISRDNAKNSLYLQMNSLRAEDTAVYYCAESGGYTDWLFGYWGQGTLVTVSSASTKGPSVFPLAPSSKSTSGGTAALGCLVKDYFPEPVTVSWNSGALTSGVHTFPAVLQSSGLYSLSSVVTVPSSSLGTQTYICNVNHKPSNTKVDKKVEPKSC light 1: not shown heavy 2: not shown light 2: DIQMTQSPSSLSASVGDRVTITCRASGNIHNYLSWYQQKPGKVPKLLIYSAKTLADGVPSRFSGSGSGTDFTLTISSLQPEDVATYYCQHFWSSIYTFGQGTKLEIKRTVAAPSVFIFPPSDEQLKSGTASVVCLLNNFYPREAKVQWKVDNALQSGNSQESVTEQDSKDSTYSLSSTLTLSKADYEKHKVYACEVTHQGLSSPVTKSFNRGEC | 10.5% | no binding (tested: 1.3 µM input molecule concentration) | 6%
bsAb from exchange reaction between anti-PDGF 2/3-IgG (MHCFcRP-knob-E357K) and anti-dig 2/3-IgG (MHCFcRP-hole-K370E) (bispecific antibody, not shown: small tags and cut ends, Exchange product as applied in the reaction mix; also called PDGF dig) heavy 1: EVQLVESGGGLVQPGGSLRLSCAASGFTFSSYWMSWVRQAPEKGLEWVSTISDGGGLTYYADSVKGRFTISRDNAKNSLYLQMNSLRAEDTAVYYCAESGGYTDWLFGYWGQGTLVTVSSASTKGPSVFPLAPSSKSTSGGTAALGCLVKDYFPEPVTVSWNSGALTSGVHTFPAVLQSSGLYSLSSVVTVPSSSLGTQTYICNVNHKPSNTKVDKKVEPKSC light 1: not shown heavy 2: QVQLVESGGGLVKPGGSLRLSCAASGFTFSDYAMSWIRQAPGKGLEWVSSINIGATYIYYADSVKGRFTISRDNAKNSLYLQMNSLRAEDTAVYYCARPGSPYEYDKAYYSMAYWGQGTTVTVSSASTKGPSVFPLAPSSKSTSGGTAALGCLVKDYFPEPVTVSWNSGALTSGVHTFPAVLQSSGLYSLSSVVTVPSSSLGTQTYICNVNHKPSNTKVDKKVEPKSC light 2: not shown | 9.2% | no binding (tested: 1.3 µM input molecule concentration) | 5.9%
bsAb from exchange reaction between anti-bio 2/3-IgG (MHCFcRP-knob-E357K) and anti-dig 2/3-IgG (MHCFcRP-hole-K370E) (bispecific antibody, not shown: small tags and cut ends, Exchange product as applied in the reaction mix; also called bio dig) heavy 1: not shown light 1: DIQMTQSPSSLSASVGDRVTITCRASGNIHNYLSWYQQKPGKVPKLLIYSAKTLADGVPSRFSGSGSGTDFTLTISSLQPEDVATYYCQHFWSSIYTFGQGTKLEIKRTVAAPSVFIFPPSDEQLKSGTASVVCLLNNFYPREAKVQWKVDNALQSGNSQESVTEQDSKDSTYSLSSTLTLSKADYEKHKVYACEVTHQGLSSPVTKSFNRGEC heavy 2: QVQLVESGGGLVKPGGSLRLSCAASGFTFSDYAMSWIRQAPGKGLEWVSSINIGATYIYYADSVKGRFTISRDNAKNSLYLQMNSLRAEDTAVYYCARPGSPYEYDKAYYSMAYWGQGTTVTVSSASTKGPSVFPLAPSSKSTSGGTAALGCLVKDYFPEPVTVSWNSGALTSGVHTFPAVLQSSGLYSLSSVVTVPSSSLGTQTYICNVNHKPSNTKVDKKVEPKSC light 2: not shown | 9.3% | no binding (tested: 1.3 µM input molecule concentration) | 6.2%
bsAb from exchange reaction between anti-bio 2/3-IgG (MHCFcRP-knob-E357K) and anti-PDGF 2/3-IgG (MHCFcRP-hole-K370E) (bispecific antibody, not shown: small tags and cut ends, Exchange product as applied in the reaction mix; also called bio PDGF) heavy 1: not shown light 1: DIQMTQSPSSLSASVGDRVTITCRASGNIHNYLSWYQQKPGKVPKLLIYSAKTLADGVPSRFSGSGSGTDFTLTISSLQPEDVATYYCQHFWSSIYTFGQGTKLEIKRTVAAPSVFIFPPSDEQLKSGTASVVCLLNNFYPREAKVQWKVDNALQSGNSQESVTEQDSKDSTYSLSSTLTLSKADYEKHKVYACEVTHQGLSSPVTKSFNRGEC heavy 2: EVQLVESGGGLVQPGGSLRLSCAASGFTFSSYWMSWVRQAPEKGLEWVSTISDGGGLTYYADSVKGRFTISRDNAKNSLYLQMNSLRAEDTAVYYCAESGGYTDWLFGYWGQGTLVTVSSASTKGPSVFPLAPSSKSTSGGTAALGCLVKDYFPEPVTVSWNSGALTSGVHTFPAVLQSSGLYSLSSVVTVPSSSLGTQTYICNVNHKPSNTKVDKKVEPKSC light 2: not shown | 10.1% | no binding (tested: 1.3 µM input molecule concentration) | 6.1%
bsAb from exchange reaction between anti-fluos 2/3-IgG (MHCFcRP-knob-E357K) and anti-bio 2/3-IgG (MHCFcRP-hole-K370E) (bispecific antibody, Exchange product as applied in the reaction mix; also called fluos bio) heavy 1: not shown light 1: DIVMTQTPLSLSVTPGQPASISCKSSQSLVHSNGNTYLRWYLQKPGQSPKVLIYKVSNRVSGVPDRFSGSGSGTDFTLKISRVEAEDVGVYYCSQSTHVPWTFGQGTKLEIKRTVAAPSVFIFPPSDEQLKSGTASVVCLLNNFYPREAKVQWKVDNALQSGNSQESVTEQDSKDSTYSLSSTLTLSKADYEKHKVYACEVTHQGLSSPVTKSFNRGEC heavy 2: not shown light 2: DIQMTQSPSSLSASVGDRVTITCRASGNIHNYLSWYQQKPGKVPKLLIYSAKTLADGVPSRFSGSGSGTDFTLTISSLQPEDVATYYCQHFWSSIYTFGQGTKLEIKRTVAAPSVFIFPPSDEQLKSGTASVVCLLNNFYPREAKVQWKVDNALQSGNSQESVTEQDSKDSTYSLSSTLTLSKADYEKHKVYACEVTHQGLSSPVTKSFNRGEC | 10.2% | no binding (tested: 1.3 µM input molecule concentration) | 6.5%
bsAb from exchange reaction between anti-fluos 2/3-IgG (MHCFcRP-knob-E357K) and anti-dig 2/3-IgG (MHCFcRP-hole-K370E) (bispecific antibody, not shown: small tags and cut ends, Exchange product as applied in the reaction mix; also called fluos dig) heavy 1: not shown light 1: DIVMTQTPLSLSVTPGQPASISCKSSQSLVHSNGNTYLRWYLQKPGQSPKVLIYKVSNRVSGVPDRFSGSGSGTDFTLKISRVEAEDVGVYYCSQSTHVPWTFGQGTKLEIKRTVAAPSVFIFPPSDEQLKSGTASVVCLLNNFYPREAKVQWKVDNALQSGNSQESVTEQDSKDSTYSLSSTLTLSKADYEKHKVYACEVTHQGLSSPVTKSFNRGEC heavy 2: QVQLVESGGGLVKPGGSLRLSCAASGFTFSDYAMSWIRQAPGKGLEWVSSINIGATYIYYADSVKGRFTISRDNAKNSLYLQMNSLRAEDTAVYYCARPGSPYEYDKAYYSMAYWGQGTTVTVSSASTKGPSVFPLAPSSKSTSGGTAALGCLVKDYFPEPVTVSWNSGALTSGVHTFPAVLQSSGLYSLSSVVTVPSSSLGTQTYICNVNHKPSNTKVDKKVEPKSC light 2: not shown | 9.4% | no binding (tested: 1.3 µM input molecule concentration) | 6.3%
bsAb from exchange reaction between anti-dig 2/3-IgG (MHCFcRP-knob-E357K) and anti-bio 2/3-IgG (MHCFcRP-hole-K370E) (bispecific antibody, not shown: small tags and cut ends, Exchange product as applied in the reaction mix; also called dig bio) heavy 1: QVQLVESGGGLVKPGGSLRLSCAASGFTFSDYAMSWIRQAPGKGLEWVSSINIGATYIYYADSVKGRFTISRDNAKNSLYLQMNSLRAEDTAVYYCARPGSPYEYDKAYYSMAYWGQGTTVTVSSASTKGPSVFPLAPSSKSTSGGTAALGCLVKDYFPEPVTVSWNSGALTSGVHTFPAVLQSSGLYSLSSVVTVPSSSLGTQTYICNVNHKPSNTKVDKKVEPKSC light 1: not shown heavy 2: not shown light 2: DIQMTQSPSSLSASVGDRVTITCRASGNIHNYLSWYQQKPGKVPKLLIYSAKTLADGVPSRFSGSGSGTDFTLTISSLQPEDVATYYCQHFWSSIYTFGQGTKLEIKRTVAAPSVFIFPPSDEQLKSGTASVVCLLNNFYPREAKVQWKVDNALQSGNSQESVTEQDSKDSTYSLSSTLTLSKADYEKHKVYACEVTHQGLSSPVTKSFNRGEC | 9% | no binding (tested: 1.3 µM input molecule concentration) | 6.2%
bsAb from exchange reaction between anti-dig 2/3-IgG (MHCFcRP-knob-E357K) and anti-fluos 2/3-IgG (MHCFcRP-hole-K370E) (bispecific antibody, not shown: small tags and cut ends, Exchange product as applied in the reaction mix; also called dig fluos) heavy 1: QVQLVESGGGLVKPGGSLRLSCAASGFTFSDYAMSWIRQAPGKGLEWVSSINIGATYIYYADSVKGRFTISRDNAKNSLYLQMNSLRAEDTAVYYCARPGSPYEYDKAYYSMAYWGQGTTVTVSSASTKGPSVFPLAPSSKSTSGGTAALGCLVKDYFPEPVTVSWNSGALTSGVHTFPAVLQSSGLYSLSSVVTVPSSSLGTQTYICNVNHKPSNTKVDKKVEPKSC light 1: not shown heavy 2: not shown light 2: DIVMTQTPLSLSVTPGQPASISCKSSQSLVHSNGNTYLRWYLQKPGQSPKVLIYKVSNRVSGVPDRFSGSGSGTDFTLKISRVEAEDVGVYYCSQSTHVPWTFGQGTKLEIKRTVAAPSVFIFPPSDEQLKSGTASVVCLLNNFYPREAKVQWKVDNALQSGNSQESVTEQDSKDSTYSLSSTLTLSKADYEKHKVYACEVTHQGLSSPVTKSFNRGEC | 9.1% | no binding (tested: 1.3 µM input molecule concentration) | 6.7%
